Assay results taken from patent publication US11826422B2, “Methods and compositions for adaptive immune modulation” (THE BOARD OF REGENTS OF THE UNIVERSITY OF TEXAS SYSTEM, priority 2016, dated 2023).

Key:
[1] = cited from earlier work
[2] = test system: total IgE; assay: Serum total IgE by sandwich ELISA, OVA sensitization and aerosol challenge mouse model; type: in vivo; parameters: unit not given here; details: mean±SEM
Procedure: (§1) Female BALB/c mice (6-10 weeks of age) were purchased from Charles River, Wilmington, Mass., and housed five mice per cage in a 12/12 h light/dark cycle with food and water available ad libitum. All experimental procedures were approved by the institutional animal ethics committee (IAUCUC) at the Institute of Biosciences and Technology, Texas A&M HSC.
(§2) Synthetic TLR ligands (referred to as O/P) were purchased from InvivoGen (San Diego, Calif.), reconstituted in endotoxin-free water, and suspended in 8 ml sterile PBS at the following concentrations: Pam2 10 μg/ml; ODN2395 20 μg/ml. Mice were sensitized to ovalbumin (OVA) ([…], Grade V, 2.25 mg alum in saline, pH7.4; Sigma, St. Louis, Mo.) administered by intraperitoneal (IP) injection once weekly for one or two weeks. Sensitized mice were exposed for 30 min to an aerosol of 2.5% (wt/vol) ovalbumin in 0.9% saline, via Aerotech II nebulizer (CIS US, Inc.) combined with or without O/P in the presence of room air supplemented with 5% CO2 to promote maximal ventilation and homogeneous aerosol exposure throughout the lungs.
Serum immunoglobulin concentrations were determined by standard sandwich ELISA technique using 96 well Easywash high binding flat bottom plates (Corning). All reagents were diluted in assay diluent (TBS+0.1% BSA [Calbiochem]) except for the coating reagent, which was diluted in TBS only. All wells were washed with wash buffer (TBS+0.1% Tween-20) 3×s, 5 minutes per wash, and all samples developed by adding TMB Substrate Reagent (BD Biosciences) for 30 minutes in the dark. Reactions were stopped by addition of 2N H2SO4 and absorbance read at 450 nm. All readings used in the data fell within the linear portion of the standard curves.
The same protocol was followed for determining total IgE using the following amounts of reagents: 2 μg/mL goat anti-mouse IgE (AbD Serotec, STAR166), 2 μg/mL Biotin Rat Anti-Mouse IgE (BD Biosciences, clone R35-118). For OVA IgG1, the following amounts of reagents were used: 100 μg/mL OVA (Sigma) and 0.1 μg/mL Biotin Rat Anti-Mouse IgG1 (eBioscience, clone M1-14D12). For total IgG1: 2 μg/mL Rat Anti-Mouse IgG1 (BioLegend, clone RMG1-1), 0.05 μg/mL Biotin Rat Anti-Mouse IgG1 (eBioscience, clone M1-14D12). For IgG2a: 2 μg/mL Rat Anti-Mouse IgG2a (BioLegend, clone RMG2a-62) and 0.05 μg/mL Biotin Goat Anti-Mouse IgG2a (AbD Serotec, 108008). For total IgG: 2 μg/mL Goat Anti-Mouse IgG (AbD Serotec, 103001) and 0.025 μg/mL Biotin Sheep Anti-Mouse IgG (AbD Serotec, AAC10B).

[3] = test system: OVA-specific IgE; assay: Serum OVA-specific IgE by sandwich ELISA, OVA sensitization and aerosol challenge mouse model; type: in vivo; details: mean±SEM
Procedure: as §1, §2
(§3) Serum immunoglobulin concentrations were determined by standard sandwich ELISA technique using 96 well Easywash high binding flat bottom plates (Corning). […] Reactions were stopped by addition of 2N H2SO4 and absorbance read at 450 nm. All readings used in the data fell within the linear portion of the standard curves. […]

[4] = test system: IgG1; assay: Serum total IgG1 by sandwich ELISA, OVA model; type: in vivo, mouse; details: FIG. 2; aerosol 6×, Groups 4 and 6; mean±SEM
Procedure: as §1, §2, §3

[5] = test system: IgG2a; assay: Serum IgG2a by sandwich ELISA, OVA model; type: in vivo, mouse; details: FIG. 2; aerosol 6×, Group 6; mean±SEM
Procedure: as §1, §2, §3

[6] = test system: eosinophils (EOS) in BAL; assay: BAL total and differential cell counts (Wright-Giemsa), OVA model; type: in vivo, mouse; details: FIG. 3B; sensitization optimization, Group 8: two IP OVA/alum, aerosol two times/week
Procedure: as §2
BAL was obtained by instilling and withdrawing two, 1 ml aliquots of PBS via trachea cannula (luer stub adapter, BD Biosciences). Total leukocyte count was determined with a hemocytometer (Houser Scientific, Horsham, Pa.), and slides for differential cell count were prepared by cytospin of 300 μl of BAL fluid at 500×g for 5 min, followed by Wright-Giemsa staining.

Molecule | solubility in dimethyl sulfoxide and dimethylformamide ([1]; dimethyl sulfoxide, dimethylformamide) | solubility in methanol and 95% ethanol ([1]; methanol, 95% ethanol) | solubility in water ([1]; water) | total IgE ([2]; FIG. 1B, serum, day 21, aerosol 6× (three times/week for 2 weeks from second immunization), Groups 4 and 6) | total IgE ([2]; FIG. 4, sensitization optimization, Group 5: one IP OVA/alum, OVA aerosol two times/week) | total IgE ([2]; FIG. 4, sensitization optimization, Group 8: two IP OVA/alum, OVA aerosol two times/week) | total IgE ([2]; FIG. 6 top panel, two OVA immunizations, aerosol schedule of FIG. 5A, Groups 2 and 3) | OVA-specific IgE ([3]; FIG. 1C, serum, day 21, aerosol 6×, Groups 4 and 6) | OVA-IgE ([3]; FIG. 6 second panel, aerosol schedule of FIG. 5A, Groups 2 and 3) | IgG1 levels [4] | IgG2a levels [5] | eosinophils (EOS) in BAL [6]
CCC(=O)O[C@]1(C(=O)SCF)[C@H](C)C[C@H]2[C@@H]3C[C@H](F)C4=CC(=O)C=C[C@]4(C)[C@@]3(F)[C@@H](O)C[C@@]21C [Fluticasone propionate, S-(fluromethyl)6α,9-difluoro-11β-17-dihydroxy-16α-methyl-3-oxoandrosta-1,4-diene-17β-carbothioate,17-propionate] | freely soluble | slightly soluble | practically insoluble | – | – | – | – | – | – | – | – | –
ovalbumin (protein, UniProt P01012 2-386, looked up, model antigen/allergen, Grade V, Sigma) Ovalbumin: GSIGAASMEFCFDVFKELKVHHANENIFYCPIAIMSALAMVYLGAKDSTRTQINKVVRFDKLPGFGDSIEAQCGTSVNVHSSLRDILNQITKPNDVYSFSLASRLYAEERYPILPEYLQCVKELYRGGLEPINFQTAADQARELINSWVESQTNGIIRNVLQPSSVDSQTAMVLVNAIVFKGLWEKAFKDEDTQAMPFRVTEQESKPVQMMYQIGLFRVASMASEKMKILELPFASGTMSMLVLLPDEVSGLEQLESIINFEKLTEWTSSNVMEERKIKVYLPRMKMEEKYNLTSVLMAMGITDVFSSSANLSGISSAESLKISQAVHAAHAEINEAGREVVGSAEAGVDAASVSEEFRADHPFLFCIKHIATNAVLFFGRCVSP | – | – | – | 17.23±1.82 | 5.36±1.70 | 11.05±2.39 | 24.66±8.23 | 4.36±0.82 | 3.77±1.00 | 6.01±0.66 | 25±3 | elevated compared to all other groups
